The record followed here is PMC11407943, “Cdc14 phosphatases use an intramolecular pseudosubstrate motif to stimulate and regulate catalysis” (The Journal of Biological Chemistry, 2024).

The test system of the series is T1, Cc1cc(=O)oc2c(F)c(OP(=O)(O)O)c(F)cc12.
T1 construct: codons 1-411; N-terminal GST; expressed in E. coli
The format is biochemical. As to conditions: pH 7.5; 30.0 °C. An excerpt: Enzym e kcat (sec-1) KM (µM)

Consider “hCdc14B^3A (Homo sapiens; K435A/L431A/R432A)”, for which the Michaelis-Menten constant (Km) stood at 1.68 µM.
